Key:
Test in all cases: cell-based or functional assay
[1] = target: HIV-1 Env of isolate MGRM-G-009 (subtype G), on pseudovirus (HIV-1)
[2] = target: HIV-1 Env of isolate MGRM-G-011 (subtype G), on pseudovirus (HIV-1)
[3] = target: HIV-1 Env of isolate MGRM-C-015 (subtype C) (HIV-1)
[4] = target: HIV-1 Env of isolate MGRM-G-004 (subtype G), on pseudovirus (HIV-1)
[5] = target: HIV-1 Env of isolate MGRM-C-012 (subtype C) (HIV-1)
[6] = target: HIV-1 Env of isolate MGRM-G-013 (subtype G), on pseudovirus (HIV-1)
[7] = target: HIV-1 Env of isolate MGRM-C-006 (subtype C) (HIV-1)
[8] = target: HIV-1 Env of isolate MGRM-C-023 (subtype C) (HIV-1)
[9] = target: HIV-1 Env of isolate MGRM-C-014 (subtype C) (HIV-1)
[10] = target: HIV-1 Env of isolate MGRM-G-006 (subtype G), on pseudovirus (HIV-1)
[11] = target: HIV-1 Env of isolate MGRM-C-008 (subtype C) (HIV-1)
[12] = target: HIV-1 Env of isolate MGRM-G-015 (subtype G), on pseudovirus (HIV-1)
[13] = target: HIV-1 Env of isolate MGRM-C-004 (subtype C) (HIV-1)
[14] = target: HIV-1 Env of isolate MGRM-G-016 (subtype G), on pseudovirus (HIV-1)
[15] = target: HIV-1 Env of isolate MGRM-C-024 (subtype C) (HIV-1)
[16] = target: HIV-1 Env of isolate MGRM-C-001 (subtype C) (HIV-1)
[17] = target: HIV-1 Env of isolate MGRM-C-026 (subtype C) (HIV-1)
[18] = target: HIV-1 Env of isolate MGRM-C-028 (subtype C) (HIV-1)
[19] = target: HIV-1 Env of isolate MGRM-C-009 (subtype C) (HIV-1)
[20] = target: HIV-1 Env of isolate MGRM-G-019 (subtype G), on pseudovirus (HIV-1)
[21] = target: HIV-1 Env of isolate MGRM-G-028 (subtype G), on pseudovirus (HIV-1)
[22] = target: HIV-1 Env of isolate MGRM-C-022 (subtype C) (HIV-1)
[23] = target: HIV-1 Env of isolate MGRM-C-025 (subtype C) (HIV-1)
[24] = target: HIV-1 Env of isolate MGRM-G-014 (subtype G), on pseudovirus (HIV-1)
[25] = target: HIV-1 Env of isolate MGRM-G-027 (subtype G), on pseudovirus (HIV-1)
[26] = target: HIV-1 Env of isolate MGRM-C-010 (subtype C) (HIV-1)
[27] = target: HIV-1 Env of isolate MGRM-G-025 (subtype G), on pseudovirus (HIV-1)
[28] = target: HIV-1 Env of isolate MGRM-C-017 (subtype C) (HIV-1)
[29] = target: HIV-1 Env of isolate MGRM-C-002 (subtype C) (HIV-1)
[30] = target: aMLV envelope, on pseudovirus (negative control)
[31] = target: HIV-1 Env of isolate MGRM-C-013 (subtype C) (HIV-1)
[32] = target: HIV-1 Env of isolate MGRM-C-019 (subtype C) (HIV-1)
[33] = target: HIV-1 Env of isolate MGRM-G-001 (subtype G), on pseudovirus (HIV-1)
[34] = target: HIV-1 Env of isolate MGRM-C-020 (subtype C) (HIV-1)
[35] = target: HIV-1 Env of isolate MGRM-C-005 (subtype C) (HIV-1)
[36] = target: HIV-1 Env of isolate 93MW959 (subtype C) (HIV-1)
[37] = target: HIV-1 Env of isolate MGRM-C-027 (subtype C) (HIV-1)
[38] = target: HIV-1 Env of isolate 98IN022 (subtype C) (HIV-1)
[39] = target: HIV-1 Env of isolate MGRM-G-024 (subtype G), on pseudovirus (HIV-1)
[40] = target: HIV-1 Env of isolate MGRM-C-007 (subtype C) (HIV-1)
[41] = target: HIV-1 Env of isolate 97ZA012 (subtype C) (HIV-1)
[42] = target: HIV-1 Env of isolate MGRM-G-017 (subtype G), on pseudovirus (HIV-1)
[43] = target: HIV-1 JR-CSF Env D474A (HIV-1 JR-CSF) (UniProt P20871)
[44] = target: HIV-1 JR-CSF Env G471A (HIV-1 JR-CSF) (UniProt P20871)

With PGT-121 (antibody) the IC50 (µg/mL), neutralization of pseudovirus [1] was 0.02 µg/mL, the IC50 (µg/mL), neutralization of pseudovirus [2] was 3.17 µg/mL and the IC50 (µg/mL), pseudovirus neutralization [3] was 25.1 µg/mL. It also gave an IC50 (µg/mL), neutralization of pseudovirus [4] of 0.115 µg/mL, an IC50 (µg/mL), pseudovirus neutralization [5] of 0.123 µg/mL and an IC50 (µg/mL), neutralization of pseudovirus [6] of 3.99 µg/mL. The IC50 (µg/mL), pseudovirus neutralization [7] was 0.017 µg/mL, the IC50 (µg/mL), pseudovirus neutralization [8] was 0.017 µg/mL and the IC50 (µg/mL), pseudovirus neutralization [9] was 26.9 µg/mL. It also gave an IC50 (µg/mL), neutralization of pseudovirus [10] greater than 50 µg/mL, an IC50 (µg/mL), pseudovirus neutralization [11] of 0.012 µg/mL and an IC50 (µg/mL), neutralization of pseudovirus [12] greater than 50 µg/mL. For the same substance, the IC50 (µg/mL), pseudovirus neutralization [13] was 0.011 µg/mL, the IC50 (µg/mL), neutralization of pseudovirus [14] was greater than 50 µg/mL and the IC50 (µg/mL), pseudovirus neutralization [15] was 0.052 µg/mL. It also gave an IC50 (µg/mL), pseudovirus neutralization [16] of 17.5 µg/mL, an IC50 (µg/mL), pseudovirus neutralization [17] of 0.002 µg/mL and an IC50 (µg/mL), pseudovirus neutralization [18] of 0.472 µg/mL. The IC50 (µg/mL), pseudovirus neutralization [19] was greater than 50 µg/mL, the IC50 (µg/mL), neutralization of pseudovirus [20] was 0.011 µg/mL and the IC50 (µg/mL), neutralization of pseudovirus [21] was 0.014 µg/mL. The IC50 (µg/mL), pseudovirus neutralization [22] was 0.015 µg/mL, the IC50 (µg/mL), pseudovirus neutralization [23] was 46.8 µg/mL and the IC50 (µg/mL), neutralization of pseudovirus [24] was 0.009 µg/mL. The IC50 (µg/mL), neutralization of pseudovirus [25] was 0.124 µg/mL, the IC50 (µg/mL), pseudovirus neutralization [26] was greater than 50 µg/mL and the IC50 (µg/mL), neutralization of pseudovirus [27] was 0.063 µg/mL. The IC50 (µg/mL), pseudovirus neutralization [28] was 0.009 µg/mL, the IC50 (µg/mL), pseudovirus neutralization [29] was 0.019 µg/mL and the IC50 (µg/mL), neutralization of pseudovirus [30] was greater than 50 µg/mL. For the same substance, the IC50 (µg/mL), pseudovirus neutralization [31] was 7.23 µg/mL, the IC50 (µg/mL), pseudovirus neutralization [32] was greater than 50 µg/mL and the IC50 (µg/mL), neutralization of pseudovirus [33] was 0.004 µg/mL. For the same substance, the IC50 (µg/mL), pseudovirus neutralization [34] was greater than 50 µg/mL, the IC50 (µg/mL), pseudovirus neutralization [35] was 0.015 µg/mL and the IC50 (µg/mL), pseudovirus neutralization [36] was 0.013 µg/mL. For the same substance, the IC50 (µg/mL), pseudovirus neutralization [37] was 0.011 µg/mL, the IC50 (µg/mL), pseudovirus neutralization [38] was 0.007 µg/mL and the IC50 (µg/mL), neutralization of pseudovirus [39] was 0.014 µg/mL. For the same substance, the IC50 (µg/mL), pseudovirus neutralization [40] was 0.196 µg/mL, the IC50 (µg/mL), pseudovirus neutralization [41] was 0.002 µg/mL and the IC50 (µg/mL), neutralization of pseudovirus [42] was 0.004 µg/mL.
PGT-122 (antibody) was tested, and the IC50 (µg/mL), neutralization of pseudovirus [1] was 0.514 µg/mL, the IC50 (µg/mL), neutralization of pseudovirus [2] was 31.3 µg/mL and the IC50 (µg/mL), pseudovirus neutralization [3] was greater than 50 µg/mL. It also gave an IC50 (µg/mL), neutralization of pseudovirus [4] of 2.15 µg/mL, an IC50 (µg/mL), pseudovirus neutralization [5] of 2 µg/mL and an IC50 (µg/mL), neutralization of pseudovirus [6] of 3.45 µg/mL. For the same substance, the IC50 (µg/mL), pseudovirus neutralization [7] was 0.018 µg/mL, the IC50 (µg/mL), pseudovirus neutralization [8] was 0.027 µg/mL and the IC50 (µg/mL), pseudovirus neutralization [9] was greater than 50 µg/mL. It also gave an IC50 (µg/mL), neutralization of pseudovirus [10] greater than 50 µg/mL, an IC50 (µg/mL), pseudovirus neutralization [11] of 0.028 µg/mL and an IC50 (µg/mL), neutralization of pseudovirus [12] greater than 50 µg/mL. For the same substance, the IC50 (µg/mL), pseudovirus neutralization [13] was 0.02 µg/mL, the Fold IC50 increase relative to wild-type [43] was 1.8 fold and the Fold IC50 increase relative to wild-type [44] was 1.8 fold. The IC50 (µg/mL), neutralization of pseudovirus [14] was greater than 50 µg/mL, the IC50 (µg/mL), pseudovirus neutralization [15] was 0.102 µg/mL and the IC50 (µg/mL), pseudovirus neutralization [16] was 19.1 µg/mL. The IC50 (µg/mL), pseudovirus neutralization [17] was 0.006 µg/mL, the IC50 (µg/mL), pseudovirus neutralization [18] was 2.22 µg/mL and the IC50 (µg/mL), pseudovirus neutralization [19] was greater than 50 µg/mL. For the same substance, the IC50 (µg/mL), neutralization of pseudovirus [20] was 0.016 µg/mL, the IC50 (µg/mL), neutralization of pseudovirus [21] was 0.01 µg/mL and the IC50 (µg/mL), pseudovirus neutralization [22] was 0.012 µg/mL. It also gave an IC50 (µg/mL), pseudovirus neutralization [23] of 8.69 µg/mL, an IC50 (µg/mL), neutralization of pseudovirus [24] of 0.008 µg/mL and an IC50 (µg/mL), neutralization of pseudovirus [25] of 0.606 µg/mL. It also gave an IC50 (µg/mL), pseudovirus neutralization [26] greater than 50 µg/mL, an IC50 (µg/mL), neutralization of pseudovirus [27] of 0.079 µg/mL and an IC50 (µg/mL), pseudovirus neutralization [28] of 0.015 µg/mL. The IC50 (µg/mL), pseudovirus neutralization [29] was 0.022 µg/mL, the IC50 (µg/mL), neutralization of pseudovirus [30] was greater than 50 µg/mL and the IC50 (µg/mL), pseudovirus neutralization [31] was 32.6 µg/mL. It also gave an IC50 (µg/mL), pseudovirus neutralization [32] greater than 50 µg/mL, an IC50 (µg/mL), neutralization of pseudovirus [33] of 0.005 µg/mL and an IC50 (µg/mL), pseudovirus neutralization [34] of 14 µg/mL. It also gave an IC50 (µg/mL), pseudovirus neutralization [35] of 0.027 µg/mL, an IC50 (µg/mL), pseudovirus neutralization [36] of 0.016 µg/mL and an IC50 (µg/mL), pseudovirus neutralization [37] of 0.039 µg/mL. It also gave an IC50 (µg/mL), pseudovirus neutralization [38] of 0.032 µg/mL, an IC50 (µg/mL), neutralization of pseudovirus [39] of 0.033 µg/mL and an IC50 (µg/mL), pseudovirus neutralization [40] of 3.35 µg/mL. For the same substance, the IC50 (µg/mL), pseudovirus neutralization [41] was 0.004 µg/mL and the IC50 (µg/mL), neutralization of pseudovirus [42] was 0.032 µg/mL.

Source: patent publication US20240132578A1
